Data as given in patent US20210395394A1.

Key:
[1] = target: Pan-species-specific antigen Plasmodium Lactate DeHydrogenase (Pan-PLDH) protein; test: indirect ELISA, recombinant MA protein coated 1 ug/ml, antibody 0.32 ng/ml
[2] = target: Pan-species-specific antigen Plasmodium Lactate DeHydrogenase (Pan-PLDH) protein; test: indirect ELISA, recombinant MA protein coated 1 ug/ml, antibody 0 ng/ml (blank)
[3] = target: Pan-species-specific antigen Plasmodium Lactate DeHydrogenase (Pan-PLDH) protein; test: indirect ELISA, recombinant MA protein coated 1 ug/ml, antibody 1.6 ng/ml
[4] = target: Pan-species-specific antigen Plasmodium Lactate DeHydrogenase (Pan-PLDH) protein; test: indirect ELISA, recombinant MA protein coated 1 ug/ml, antibody 40 ng/ml
[5] = target: Pan-species-specific antigen Plasmodium Lactate DeHydrogenase (Pan-PLDH) protein; test: indirect ELISA, recombinant MA protein coated 1 ug/ml, antibody 200 ng/ml
[6] = target: Pan-species-specific antigen Plasmodium Lactate DeHydrogenase (Pan-PLDH) protein; test: indirect ELISA, recombinant MA protein coated 1 ug/ml, antibody 1000 ng/ml
[7] = target: Pan-species-specific antigen Plasmodium Lactate DeHydrogenase (Pan-PLDH) protein; test: indirect ELISA, recombinant MA protein coated 1 ug/ml, antibody 8 ng/ml
[8] = target: Pan-species-specific antigen Plasmodium Lactate DeHydrogenase (Pan-PLDH) protein; test: indirect ELISA at four coating concentrations, KD calculated from half-maximal OD

B1: Mutation 3 (antibody, mouse IgG2b, kappa, V domains shown)
VH: QVQLQQPGAELVRPGASVKLSCKASGSSFTNYWMNWVKQRPGQGLEWIGMINPSESETRINQKFKDKATLTVDKSSSTAYMQLSSLTAEDSAVYYCAKSGDFYTSYFDYWGQGTTLTVSS
VL: DIQLTQSPASLSASVGETVTITCRGSGNLHNYIAWYQQKQGKSPQLLVYNARTIADGVPSRFSGSGSGTQYSLKINSLQPEDFGSYYCQSFWSTYTFGGGTKLEIKR
In the case of B1, the OD value at 450 nm (refer to 630 nm) [1] is reported as 0.255 OD, the OD value at 450 nm (refer to 630 nm) [2] is reported as 0.053 OD and the OD value at 450 nm (refer to 630 nm) [3] is reported as 0.274 OD. For the same binder, the OD value at 450 nm (refer to 630 nm) [4] was 2.01 OD, the OD value at 450 nm (refer to 630 nm) [5] was 2.14 OD and the OD value at 450 nm (refer to 630 nm) [6] was 2.23 OD. It also gave an OD value at 450 nm (refer to 630 nm) [7] of 1.01 OD.

B2: Mutation 4 (antibody, mouse IgG2b, kappa, V domains shown)
VH: QVQLQQPGAELVRPGASVKLSCKASGSSFTNYFMNWVKQRPGQGLEWIGMIHPSESETRINQKFKDKATLTVDKSSSTAYMQLSSLTAEDSAVYYCAKSGDFYTSYWDYWGQGTTLTVSS
VL: DIQLTQSPASLSASVGETVTITCRGSGNLHNYIAWYQQKQGKSPQLLVYNARTIADGVPSRFSGSGSGTQYSLKINSLQPEDFGSYYCQSFWSTYTFGGGTKLEIKR
With B2 the OD value at 450 nm (refer to 630 nm) [1] was 0.211 OD, the OD value at 450 nm (refer to 630 nm) [2] was 0.066 OD and the OD value at 450 nm (refer to 630 nm) [3] was 0.251 OD. The OD value at 450 nm (refer to 630 nm) [4] was 1.92 OD, the OD value at 450 nm (refer to 630 nm) [5] was 2.03 OD and the OD value at 450 nm (refer to 630 nm) [6] was 2.15 OD. It also gave an OD value at 450 nm (refer to 630 nm) [7] of 0.939 OD.

B3: Mutation 2 (antibody, mouse IgG2b, kappa, V domains shown)
VH: QVQLQQPGAELVRPGASVKLSCKASGSSFTNYFMNWVKQRPGQGLEWIGMIHPSESETRINQKFKDKATLTVDKSSSTAYMQLSSLTAEDSAVYYCAKSGDFYTSYFDYWGQGTTLTVSS
VL: DIQLTQSPASLSASVGETVTITCRGSGNLHNYLAWYQQKQGKSPQLLVYNARTIADGVPSRFSGSGSGTQYSLKINSLQPEDFGSYYCQSFWSSYTFGGGTKLEIKR
B3 gave an OD value at 450 nm (refer to 630 nm) [1] of 0.231 OD, an OD value at 450 nm (refer to 630 nm) [2] of 0.072 OD and an OD value at 450 nm (refer to 630 nm) [3] of 0.297 OD. It also gave an OD value at 450 nm (refer to 630 nm) [4] of 1.98 OD, an OD value at 450 nm (refer to 630 nm) [5] of 2.14 OD and an OD value at 450 nm (refer to 630 nm) [6] of 2.21 OD. It also gave an OD value at 450 nm (refer to 630 nm) [7] of 1 OD.

B4: Mutation 1-46 (antibody, mouse IgG2b, kappa, V domains shown)
VH: QVQLQQPGAELVRPGASVKLSCKASGTSFTNYWMNWVKQRPGQGLEWIGMIHPSESETRLNQKFKDKATLTVDKSSSTAYMQLSSLTAEDSAVYYCARSGEFYTTYFDYWGQGTTLTVSS
VL: DIQLTQSPASLSASVGETVTITCRGTGNLHNYLAWYQQKQGKSPQLLVYNARTVADGVPSRFSGSGSGTQYSLKINSLQPEDFGSYYCQYFWSTYTFGGGTKLEIKR
For B4, the Kd [8] was 0.332 nM.

B5: Mutation 1-47 (antibody, mouse IgG2b, kappa, V domains shown)
VH: QVQLQQPGAELVRPGASVKLSCKASGTSFTNYWMNWVKQRPGQGLEWIGMIHPSESETRVNQKFKDKATLTVDKSSSTAYMQLSSLTAEDSAVYYCAKSGDFYTSYFDYWGQGTTLTVSS
VL: DIQLTQSPASLSASVGETVTITCRGSGNLHNYLAWYQQKQGKSPQLLVYNARTLADGVPSRFSGSGSGTQYSLKINSLQPEDFGSYYCQTFWSTYTFGGGTKLEIKR
B5 showed a Kd [8] of 0.454 nM.

B6: Mutation 1-48 (antibody, mouse IgG2b, kappa, V domains shown)
VH: QVQLQQPGAELVRPGASVKLSCKASGYSFTNYWMNWVKQRPGQGLEWIGMIHPSDSETRINQKFKDKATLTVDKSSSTAYMQLSSLTAEDSAVYYCAKSGDFYTYYFDYWGQGTTLTVSS
VL: DIQLTQSPASLSASVGETVTITCRGSGNLHNYLAWYQQKQGKSPQLLVYNAKTLADGVPSRFSGSGSGTQYSLKINSLQPEDFGSYYCQYFWSTYTFGGGTKLEIKR
With B6 the Kd [8] was 0.336 nM.

B7: Mutation 1-49 (antibody, mouse IgG2b, kappa, V domains shown)
VH: QVQLQQPGAELVRPGASVKLSCKASGSSFTNYWMNWVKQRPGQGLEWIGMIHPSDSETRLNQKFKDKATLTVDKSSSTAYMQLSSLTAEDSAVYYCAKSGDFYTTYFDYWGQGTTLTVSS
VL: DIQLTQSPASLSASVGETVTITCRGTGNLHNYLAWYQQKQGKSPQLLVYNAKTVADGVPSRFSGSGSGTQYSLKINSLQPEDFGSYYCQTFWSTYTFGGGTKLEIKR
B7 was tested, and the Kd [8] was 0.342 nM.

B8: Mutation 1-50 (antibody, mouse IgG2b, kappa, V domains shown)
VH: QVQLQQPGAELVRPGASVKLSCKASGTSFTNYWMNWVKQRPGQGLEWIGMIHPSDSETRVNQKFKDKATLTVDKSSSTAYMQLSSLTAEDSAVYYCAKSGEFYTSYFDYWGQGTTLTVSS
VL: DIQLTQSPASLSASVGETVTITCRGSGNVHNYLAWYQQKQGKSPQLLVYNAKTIADGVPSRFSGSGSGTQYSLKINSLQPEDFGSYYCQSFWSTYTFGGGTKLEIKR
In the case of B8, the Kd [8] is reported as 0.0879 nM.

B9: Mutation 1-51 (antibody, mouse IgG2b, kappa, V domains shown)
VH: QVQLQQPGAELVRPGASVKLSCKASGSSFTNYWMNWVKQRPGQGLEWIGMIHPSESETRINQKFKDKATLTVDKSSSTAYMQLSSLTAEDSAVYYCAKSGEFYTYYFDYWGQGTTLTVSS
VL: DIQLTQSPASLSASVGETVTITCRGTGNVHNYLAWYQQKQGKSPQLLVYNARTLADGVPSRFSGSGSGTQYSLKINSLQPEDFGSYYCQTFWSTYTFGGGTKLEIKR
B9 was tested, and the Kd [8] was 0.526 nM.

B10: Mutation 1-52 (antibody, mouse IgG2b, kappa, V domains shown)
VH: QVQLQQPGAELVRPGASVKLSCKASGYSFTNYWMNWVKQRPGQGLEWIGMIHPSESETRLNQKFKDKATLTVDKSSSTAYMQLSSLTAEDSAVYYCAKSGEFYTTYFDYWGQGTTLTVSS
VL: DIQLTQSPASLSASVGETVTITCRGSGNIHNYLAWYQQKQGKSPQLLVYNARTVADGVPSRFSGSGSGTQYSLKINSLQPEDFGSYYCQSFWSTYTFGGGTKLEIKR
With B10 the Kd [8] was 0.659 nM.

B11: Mutation 1-53 (antibody, mouse IgG2b, kappa, V domains shown)
VH: QVQLQQPGAELVRPGASVKLSCKASGSSFTNYWMNWVKQRPGQGLEWIGMIHPSESETRVNQKFKDKATLTVDKSSSTAYMQLSSLTAEDSAVYYCARSGDFYTSYFDYWGQGTTLTVSS
VL: DIQLTQSPASLSASVGETVTITCRGTGNIHNYLAWYQQKQGKSPQLLVYNARTIADGVPSRFSGSGSGTQYSLKINSLQPEDFGSYYCQYFWSTYTFGGGTKLEIKR
B11 was tested, and the Kd [8] was 0.717 nM.

B12: Mutation 1-54 (antibody, mouse IgG2b, kappa, V domains shown)
VH: QVQLQQPGAELVRPGASVKLSCKASGTSFTNYWMNWVKQRPGQGLEWIGMIHPSDSETRINQKFKDKATLTVDKSSSTAYMQLSSLTAEDSAVYYCARSGDFYTYYFDYWGQGTTLTVSS
VL: DIQLTQSPASLSASVGETVTITCRGTGNIHNYLAWYQQKQGKSPQLLVYNAKTVADGVPSRFSGSGSGTQYSLKINSLQPEDFGSYYCQSFWSTYTFGGGTKLEIKR
Binder B12 has a Kd [8] of 0.633 nM.

B13: Mutation 1-55 (antibody, mouse IgG2b, kappa, V domains shown)
VH: QVQLQQPGAELVRPGASVKLSCKASGYSFTNYWMNWVKQRPGQGLEWIGMIHPSDSETRLNQKFKDKATLTVDKSSSTAYMQLSSLTAEDSAVYYCARSGDFYTTYFDYWGQGTTLTVSS
VL: DIQLTQSPASLSASVGETVTITCRGSGNIHNYLAWYQQKQGKSPQLLVYNAKTIADGVPSRFSGSGSGTQYSLKINSLQPEDFGSYYCQYFWSTYTFGGGTKLEIKR
With B13 the Kd [8] was 0.559 nM.

B14: WT 1-1 (antibody, mouse IgG2b, kappa, V domains shown)
VH: QVQLQQPGAELVRPGASVKLSCKASGTSFTNYFMNWVKQRPGQGLEWIGMINPSDSETRINQKFKDKATLTVDKSSSTAYMQLSSLTAEDSAVYYCARSGDFYTSYWDYWGQGTTLTVSS
VL: DIQLTQSPASLSASVGETVTITCRGTGNIHNYIAWYQQKQGKSPQLLVYNAKTLADGVPSRFSGSGSGTQYSLKINSLQPEDFGSYYCQTFWSSYTFGGGTKLEIKR
Work on B14 yielded a Kd [8] of 0.759 nM.

B15: WT 1-2 (antibody, mouse IgG2b, kappa, V domains shown)
VH: QVQLQQPGAELVRPGASVKLSCKASGYSFTNYFMNWVKQRPGQGLEWIGMINPSDSETRVNQKFKDKATLTVDKSSSTAYMQLSSLTAEDSAVYYCARSGDFYTTYWDYWGQGTTLTVSS
VL: DIQLTQSPASLSASVGETVTITCRGTGNVHNYIAWYQQKQGKSPQLLVYNAKTIADGVPSRFSGSGSGTQYSLKINSLQPEDFGSYYCQYFWSSYTFGGGTKLEIKR
B15 showed a Kd [8] of 0.639 nM.

B16: WT 1-3 (antibody, mouse IgG2b, kappa, V domains shown)
VH: QVQLQQPGAELVRPGASVKLSCKASGSSFTNYFMNWVKQRPGQGLEWIGMINPSESETRINQKFKDKATLTVDKSSSTAYMQLSSLTAEDSAVYYCARSGEFYTYYWDYWGQGTTLTVSS
VL: DIQLTQSPASLSASVGETVTITCRGTGNLHNYIAWYQQKQGKSPQLLVYNARTLADGVPSRFSGSGSGTQYSLKINSLQPEDFGSYYCQTFWSSYTFGGGTKLEIKR
Binder B16 has a Kd [8] of 0.485 nM.

B17: WT 1-4 (antibody, mouse IgG2b, kappa, V domains shown)
VH: QVQLQQPGAELVRPGASVKLSCKASGYSFTNYFMNWVKQRPGQGLEWIGMINPSDSETRVNQKFKDKATLTVDKSSSTAYMQLSSLTAEDSAVYYCAKSGDFYTTYWDYWGQGTTLTVSS
VL: DIQLTQSPASLSASVGETVTITCRGSGNVHNYIAWYQQKQGKSPQLLVYNAKTVADGVPSRFSGSGSGTQYSLKINSLQPEDFGSYYCQYFWSSYTFGGGTKLEIKR
B17 was tested, and the Kd [8] was 0.85 nM.

B18: WT 1-5 (antibody, mouse IgG2b, kappa, V domains shown)
VH: QVQLQQPGAELVRPGASVKLSCKASGYSFTNYFMNWVKQRPGQGLEWIGMINPSESETRVNQKFKDKATLTVDKSSSTAYMQLSSLTAEDSAVYYCAKSGEFYTTYWDYWGQGTTLTVSS
VL: DIQLTQSPASLSASVGETVTITCRGTGNIHNYIAWYQQKQGKSPQLLVYNARTLADGVPSRFSGSGSGTQYSLKINSLQPEDFGSYYCQSFWSSYTFGGGTKLEIKR
In the case of B18, the Kd [8] is reported as 0.516 nM.
